# According to the nanobody polyreactivity screen of Harvey et al. (2022):
# Assay: yeast display, Sf9 membrane polyspecificity reagent, FACS + sequencing; frameworks hold sequencing errors
# In short: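 After 36–48 hours of galactose induction, yeast (Saccharomyces cerevisiae BJ5465) displaying a synthetic nanobody library were stained at 4 °C for 1 hour with 10% biotinylated, detergent-solubilized Sf9 membrane reagent. Streptavidin microbeads enriched the stained cells before FACS sorting into low and high (top ~1%) gates on anti-HA and streptavidin fluorescence. Each clone's polyreactivity label reflects its gate of origin.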
row,Sequence,polyreactivity (PSR sort gate)
1,QDQLVESGGGLVQAGGSLRLSCAASGSIFSFYAMGWYSQATGKERELVAGIRWRGGTSTFYADSVKGRFTISRDNEKNTVYLQMNSLNPEDTAVYYCADKRRTGGNGYWGQGTQVTVSS,high polyreactivity
2,QDQLLETGGGLVQAGGSLRLSCAASGSTSLVYAMGWYRQAPGKERELVADISWSGGSTYYTDSVKGRFTISRDNAKNTVYLQMNSLKPEDTAVYYCNGGTYSTSVPYPYKYWGQGTQVTVSS,high polyreactivity
3,QVQLVESGGGLVQAGGSLRLSCAASGSIFQYNAMGWYRQAPGKEREFVAAITRGGGTYYADSVKGRFTISRDNAKKTVYLQMNSLKPEDTAVYYCAAQSRTSYRFNYWGQGTQVTVSS,high polyreactivity
4,QVQLVESGGGLVQAGGSLRLSCAASGSTFIGYAMGWYRKAPGKERELVAAITGGGRTNYADSVKGRFTISRDNAKNTVYLQMNSLKPEDTAVYYCAARGVTRGYAKPYYSRGDYWGQGTQVTVSS,low polyreactivity
5,QVQLVESGAGLVQAGGSLRLSCAASGRIFVYNTMGWYRQAPGKEREFVAAITRSGGSTTYADSVKGRFTISRANAKNTVYLQRNSLKPEDTAVYYCAAGPFISYWVSRFGYWGQGTQVTVSS,high polyreactivity
6,QVQLVESGGGLVQAGGSLRLSCAASGFIFGTYVMGLYRTAPGKERELLAAISESGGRTYYADSVKGRFTISRDNAKNTVYIQMNSLIPEDTAVYYCAKVRHIRFHYYYGYQSYYYWGQGTQVTVSS,high polyreactivity
7,QVKLVESGGGLVQAGGSLRLSCAPSGFTFFTYAMGWYRQAPGKERVLVAAITSGGSTNYADSVKGRFTISRDNAKNTVDLQMNSLKPEDTAVYYCAKLAYSDATTVYGYQRSDYWGQGTQVTVSS,low polyreactivity
8,QVQLVESGGGLVQAGGSLRLSCAASGYIFPWYDMGWYRQAPGKERELVAAISWSGGSTYSADSVKGRFTISRDNAKNTVDLQMNSLKPEDTAVYYCAAYLSHYATRYGYWGHGTQVTVSS,high polyreactivity
9,QVQLVESGGGLVQAGGSLRLSCAASGSIFTFYAMGWYRQAPGKERELVATITISTGSTYYADSVKGRFTISRDNAKNTVYLQMNCLKPEDTAVYYCAARRRSAEYNYWGQGTQVTVSS,high polyreactivity
10,QVQLVESGGGLVQAGGSLRLSCAASGSTFYGYGMGWYRQAPGKEWELVAAITGSGDTTYYADSVKGRFTISRDNAKNTVYLQMNSLKPEDTAVYYCNARWHAEYDYWGQGTQVTVSS,low polyreactivity
11,QFQLVETGGGLVQAGGSLRLSSAASGSTFTLYAMGWYRQAPGKERELVATITGSGGSTNYADSVKGRFTISRDNAKNTVYLQMNSLKPEDTAVYYCAADYAVYSFTEFNYWGQGTQVTVSS,high polyreactivity
12,QVQLVESGGGLVQAGGSLRLSCAASGFIFPYDAMGWYSQAPGNERELVAAITSSGGRTYYADSVQGRFTISRDNAKNTVYFQMNSLKPEDTAVYYCAARGAPPAYGYWGQGTQVTVSS,high polyreactivity
13,QVQLVESGGGLVQPGGSLRLSCAASGRIFGYYVMGWYRQAPRKERELVAAITGGGGSTYYADSVKGRFTISRDNEKNTVFLQMNSLKPEDTAVYYCAADLEYTNYDYDYWGQGTQVTVSS,high polyreactivity
14,QVQLVESGGGLVQAGGSLRLSCAASGFTFYPNAMGWYRQAPGNERELVATITGSGGSTNYADSVKGRFTISRDTAKNTVYLHMNRLKPEDTAVYYCAADYAVYSFTEFNYWGQVTQVTVSS,high polyreactivity
15,QVQLVESGGGLVQAGGSLRLSCAASGSTFFFNAMGWYRQAPGKERELVAGISSSGGSTHYADSVKGRFTISRDNAKNTVYLQMNSLKPEDTAVYYCNAQQYLPSEGDYWGQGTQVTVSS,low polyreactivity
16,QVQLVESGGCLVQAGGSLRLSCAASGRIFLRYAMGWYRQAPGKEREFVADITYSGGSTYYADSVKGRFTISRDNAKNTVYLQMNSLKPEDTAVYYCAAGWVRPWATYKLDYWGQGTQVTVTS,high polyreactivity
17,QVQLEESGGGLVQAGGSLRLSCAASGFTFRVYAMGWYRQAPGKERELVAAISSGGSTNYADSVKGRFTISRDNAKNTVYLQMNSLKPEDTAVYYCAARQRYYSERPQYSGLYYWGQGTQVTVSS,high polyreactivity
18,QVQLVESGGGLVQAGGSLRLSCAASGSILGYYAMGWYRQAPGTEREFVAAITRSGSRTYYADSVKGRFTISRDNAKNTVNLHMNSLKPEDTAVYYCAKKGLFQGWPTLVDYWGEGTQVTVSS,high polyreactivity
19,QVQLEESGGGLVQAGGSLRLSCAASGRISAKYAMGWYRKAPGKERELVASISWSGGSTYYADSVKGRFTISRDNAKNTVYLQMNSLKPEDTAVYYCAADLTQQRGVRGMDYWGQGTQVTVSS,low polyreactivity
20,QVQLVESGGGLVQAGGSLRLSCAASGSIFGFYAMGWYRQAPGKERELVAAIRYTGGSTYYADSVKGRFTISRDNAKNTVYLQMNSLKPEDTAVYYCNARTFRRYVSYSRTYVGYDYWGQGTQVTVSS,high polyreactivity
21,QVQLVESGGGLVQAGGSLRLSCAASGSTFWYSDMGWYRQARGKDRELVAAISGSGGRTYYADSVKGRFTISRDNAKNTVYIQMNSLKPEDTAVYYCAADDYWSADFKYNYWGQGTQVTVSS,low polyreactivity
22,QVQLQESGGGLVQAGGSLRLSCAASGNIVDADIMGWSRQAPGKERELVASITDGGSTNYADSVKGRFTISRDYAKNTVYLQMNSLKPEDTAVYYCAAIAYPDIPTYIDYDSEYFYWGQGTQVTVSS,low polyreactivity
23,QVQLVESGGGLVQAGGSLRLSWAASGRIFIGYPMGWYRQAPGKERELVAAISRNGDNTYYADSVKGRFTISRDNAKNTVYLQMNSLKPEDSAVYYCAAVAYPREWKLSYEDGSWGYDYWGQGTQVTVSS,low polyreactivity
24,QVQVVESGGGLVQAGGSLRLSCAASGSIFSSYAMGWYRQAPGKERELVAAITGSGGSTDYADSVKGRFTISRDNAKNTVYLQMNSLKPEDTAVYYCAARRFWPGNSYYYRYYYWGQGTQVTVSS,low polyreactivity
25,QVQLVESGGGLVQAGGSLRLSCAASGRIFAVNAMGWYRQAPGKERELVATIRGSGTSTYYADSVKGRFTISRDNAKNTVYLQMNSLKPEDTAVYYCAARGRYRQFNYWGQGTQVTVSS,high polyreactivity
26,QVQLEDSGGGLVQAGGSLRLICAASGSIIGTKAMGWYRQAPGKERELVAAIHWSGGTTYYADSVKGRFTISRDNAKNTVYFQMNSLKPDDTPVYDCATVFFVLPPTRFDAWGQGTLVTVSS,low polyreactivity
27,QVQLVESGGGLDQAGGRLRLSCAASGIIFPIYAMRLYRQAPGKERELVAGISTGGGGTYYADSVKGRFTISRDNAKNTVYLQMNSLKPEDSAVYYCSTSGPLYYSRNFDYWGQGTQVTVSS,low polyreactivity
28,QVQLVESVGGLVQAGGSLRLSCAASGSIFRRYAMGWYRQAPGKERELVAGISSGGYTNYADSVKGRFTISRDNAKNTVYLQMNSLKPEDTAVYYCAAKQYRYVRYRPVDYWGQGTQVTVSS,high polyreactivity
29,QVKLVESGGGLVQAGGSLRLSCADSGLIFGRNARGWYRQAPGKERELVAAISSSGVRTFYADSVKGRFTISRDNAKNTVYLQMNSLKPEDTAVYYCATRGRVYPTKYSLDEDYWGQGTQVTVSS,high polyreactivity
30,QVQLVESGGGLVQAGGSLRLSCAASGRTFYRYAMGWYRQAPGKERELVAAITASGGSTYYADSVKGRFTISRDNAKNTVYLQMNSLKPEDTAVYYCAKGGKSRYSTWHGDYWGQGTQVTVSS,high polyreactivity
